Measured values as given in patent US20200317802A1 (Merck KGaA, published 2020).

What was measured:
[1] = target: T1, recombinant human ADAMTS5 (R&D Systems cat #2198-AD) (human, UniProt Q9UNA0 262-622, limits assumed); assay: cell-based or functional assay
T1 sequence: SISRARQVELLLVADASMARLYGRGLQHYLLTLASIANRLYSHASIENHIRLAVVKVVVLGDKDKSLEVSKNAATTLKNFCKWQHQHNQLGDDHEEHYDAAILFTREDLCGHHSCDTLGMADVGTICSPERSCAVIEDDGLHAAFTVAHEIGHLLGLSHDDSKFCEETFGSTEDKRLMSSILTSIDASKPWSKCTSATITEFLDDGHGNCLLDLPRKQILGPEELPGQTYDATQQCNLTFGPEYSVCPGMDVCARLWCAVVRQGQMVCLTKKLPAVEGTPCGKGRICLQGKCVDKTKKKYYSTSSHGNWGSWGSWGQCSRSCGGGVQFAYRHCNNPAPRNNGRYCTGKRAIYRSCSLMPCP

[2] = target: T1, recombinant human ADAMTS5 (R&D Systems …); assay: cell-based or functional assay; remark: listed apart in the source
[3] = target: T1, recombinant human ADAMTS5 (R&D Systems …); assay: cell-based or functional assay; remark: listed apart in the source
[4] = target: T2, cynomolgus monkey recombinant ADAMTS5 (cynomolgus monkey, UniProt Q9UNA0 262-622 (human entry), limits assumed); assay: cell-based or functional assay
T2 chain: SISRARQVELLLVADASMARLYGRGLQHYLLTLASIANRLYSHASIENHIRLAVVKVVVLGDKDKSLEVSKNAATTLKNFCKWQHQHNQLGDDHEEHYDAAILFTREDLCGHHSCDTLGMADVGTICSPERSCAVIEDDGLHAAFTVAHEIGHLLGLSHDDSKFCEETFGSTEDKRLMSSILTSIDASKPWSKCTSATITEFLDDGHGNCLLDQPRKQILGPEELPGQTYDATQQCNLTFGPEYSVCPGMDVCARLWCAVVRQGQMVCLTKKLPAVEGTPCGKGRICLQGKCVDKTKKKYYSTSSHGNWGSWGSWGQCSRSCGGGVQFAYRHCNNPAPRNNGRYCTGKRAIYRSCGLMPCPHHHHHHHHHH

[5] = target: T3, guinea pig recombinant ADAMTS5 (guinea pig); assay: cell-based or functional assay
T3 chain: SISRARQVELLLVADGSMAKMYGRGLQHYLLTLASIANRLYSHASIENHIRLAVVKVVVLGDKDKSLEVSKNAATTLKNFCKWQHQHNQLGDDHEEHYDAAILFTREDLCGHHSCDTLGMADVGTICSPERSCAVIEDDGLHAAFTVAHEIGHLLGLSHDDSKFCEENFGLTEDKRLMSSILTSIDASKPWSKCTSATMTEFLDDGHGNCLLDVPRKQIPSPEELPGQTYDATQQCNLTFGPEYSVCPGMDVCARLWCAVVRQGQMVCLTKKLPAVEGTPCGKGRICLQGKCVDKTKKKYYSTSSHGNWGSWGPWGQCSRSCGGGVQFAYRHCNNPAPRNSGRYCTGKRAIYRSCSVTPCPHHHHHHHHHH

[6] = target: T1, recombinant human ADAMTS5 (R&D Systems …); assay: binding ELISA, periplasmic extract on coated human ADAMTS5
Procedure: In a first step, periplasmic extracts were tested for binding to recombinant human ADAMTS5 by binding ELISA. In brief, recombinant human ADAMTS5 (R&D Systems, Minneapolis, US; cat #2198-AD) at a concentration of 1 μg/ml was coated on 384-well MaxiSorp plates (Nunc, Wiesbaden, Germany). Wells were blocked with a casein solution (1%). After addition of a 10-fold dilution of the periplasmic extracts, Nanobody binding was detected using a mouse anti-Flag-HRP conjugate (Sigma, St. Louis, US) and a subsequent enzymatic reaction in the presence of the substrate esTMB (3,3′,5,5′-tetramentylbenzidine) (SDT, Brussels, Belgium). Clones showing ELISA signals higher than the sum of the average signal of the irrelevant Nanobody controls and 3 times the standard deviation of the irrelevant Nanobody controls were considered to encode positive human ADAMTS5 binding Nanobodies.

[7] = target: T1, recombinant human ADAMTS5 (R&D Systems …); assay: SPR off-rate, Biacore T100, ADAMTS5 immobilised, experiment 1
Procedure: (§1) Species cross-reactivity was initially evaluated via SPR-based off-rate analysis on a Biacore T100 instrument. Nanobodies were tested for binding to human, cynomolgus monkey (“cyno”), guinea pig, mouse, and bovine ADAMTS5. To this end, recombinant ADAMTS5 was immobilized onto a CM5 chip via amine coupling using EDC and NHS. Purified Nanobodies were injected for 2 minutes at a concentration of 100 nM and allowed to dissociate for 15 min at a flow rate of 45 ul/min. Off-rate for each individual Nanobody was determined by fitting a 1:1 interaction model (Langmuir model) onto the individual dissociation curves using the BIA Evaluation software. As a reference, off-rates on human ADAMTS5 were determined in each experiment.

[8] = target: T2, cynomolgus monkey recombinant ADAMTS5; assay: as above
Procedure: as §1

[9] = target: T3, guinea pig recombinant ADAMTS5; assay: as above
Procedure: as §1

[10] = target: T1, recombinant human ADAMTS5 (R&D Systems …); assay: SPR off-rate, Biacore T100, ADAMTS5 immobilised, experiment 2
Procedure: as §1

[11] = target: T4, mouse recombinant ADAMTS5 (mouse, UniProt Q9R001 262-622, limits assumed); assay: as above
T4 construct: in house, HEK293, His tag in the entry
T4 sequence: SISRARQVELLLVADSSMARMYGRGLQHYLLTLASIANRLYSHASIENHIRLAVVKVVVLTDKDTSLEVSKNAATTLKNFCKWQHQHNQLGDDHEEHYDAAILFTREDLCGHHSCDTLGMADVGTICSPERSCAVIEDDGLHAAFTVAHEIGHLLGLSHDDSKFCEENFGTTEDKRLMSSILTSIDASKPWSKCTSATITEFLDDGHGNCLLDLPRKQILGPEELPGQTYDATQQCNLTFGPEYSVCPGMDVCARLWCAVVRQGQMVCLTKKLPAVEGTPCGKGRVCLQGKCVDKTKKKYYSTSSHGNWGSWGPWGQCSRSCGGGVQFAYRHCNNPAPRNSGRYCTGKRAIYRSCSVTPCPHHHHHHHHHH
Procedure: as §1

[12] = target: T1, recombinant human ADAMTS5 (R&D Systems …); assay: SPR off-rate, Biacore T100, ADAMTS5 immobilised, experiment 3
Procedure: as §1

[13] = target: T1, recombinant human ADAMTS5 (R&D Systems …); assay: cell-based or functional assay; remark: listed apart in the source

B1: Nanobody 3D01 (VHH)
VHH: EVQLVESGGGLVQAGGSLRLSCAPSGFTFSPYYMGWFRQAPGKERDFVAAISRSRGTTYYLDSTEGRFTISRDNANDTVYLQMNSLNPEDTAVYYCAAGRSPGDPSRTYLYDYWGQGTLVTVSS
notes: tagged as tested (anti-Flag detection, IMAC); also called 03D01
FRET assay % inh, periplasmic extract [1]: 111%
FRET assay vi (U/min), periplasmic extract [1]: -2 U/min
Human AlphaLISA % inhibition [2]: 96%
Human AlphaLISA IC50 [2]: 0.39 nM
AlphaLISA potency IC50, Human [3]: 0.39 nM
AlphaLISA potency IC50, Cyno [4]: 0.22 nM
AlphaLISA potency IC50, Guinea pig [5]: 0.35 nM
binding ELISA (OD 450 nm) [6]: 2.57 OD 450 nm
koff [7]: 0.00023 s⁻¹
koff [8]: 0.0002 s⁻¹
koff [9]: 0.00027 s⁻¹
koff [10]: 0.00032 s⁻¹
koff [11]: 0.00064 s⁻¹
koff [12]: 0.00046 s⁻¹

B2: Nanobody 3D02 (VHH)
VHH: EVQLVESGGGLVQAGASLRLSCATSGFTFSPYYMGWFRQAPGKERDFVAAISWSRGILYYTDSTEGRFTISRDNAKNTMYLQMDNLNPEDTAVYYCAASRSPGDPSRTYLYDYWGQGTLVTVSS
notes: tagged as tested (anti-Flag detection, IMAC); also called 03D02
FRET assay % inh, periplasmic extract [1]: 111%
FRET assay vi (U/min), periplasmic extract [1]: -2 U/min
Human AlphaLISA % inhibition [2]: 100%
Human AlphaLISA IC50 [2]: 0.22 nM
binding ELISA (OD 450 nm) [6]: 2.58 OD 450 nm

B3: Nanobody 11B06 (VHH)
VHH: EVQLVESGGGLVQAGGSLRLSCAASGLTFRRNAMGWFRQAPGKERELLAGINWSGGTTYYVDSVKGRFTISRDNAKNTVDLQMISPKPEDTAVYYCAADGDIGTLVNDENPRYWGQGTLVTVSS
notes: tagged as tested (anti-Flag detection, IMAC)
FRET assay % inh, periplasmic extract [1]: 106%
FRET assay vi (U/min), periplasmic extract [1]: -1 U/min
Human AlphaLISA % inhibition [2]: 100%
Human AlphaLISA IC50 [2]: 0.1 nM
AlphaLISA potency IC50, Human [3]: 0.1 nM
AlphaLISA potency IC50, Cyno [4]: 0.12 nM
AlphaLISA potency IC50, Guinea pig [5]: 0.35 nM
koff [7]: 0.00017 s⁻¹
koff [8]: 0.00014 s⁻¹
koff [9]: 0.00017 s⁻¹
koff [10]: 0.00027 s⁻¹
koff [11]: 0.00053 s⁻¹
koff [12]: 0.00038 s⁻¹

B4: Nanobody 2D07 (VHH)
VHH: EVQLVESGGGLVQAGGSLRLSCSFSGPGRTFARYAMGWFRQAPGKNRDFITGISGSGDSTYYVYPMKDRFTISRDNAKNMVYLQMNALKPEDTAVYYCAADREINRIANDKELDFWGQGTLVTVSS
notes: tagged as tested (anti-Flag detection, IMAC); also called 02D07; 2D7
FRET assay % inh, periplasmic extract [1]: 104%
FRET assay vi (U/min), periplasmic extract [1]: -1 U/min
Human AlphaLISA % inhibition [2]: 100%
Human AlphaLISA IC50 [2]: 0.19 nM
AlphaLISA potency IC50, Human [3]: 0.19 nM
AlphaLISA potency IC50, Cyno [4]: 0.15 nM
AlphaLISA potency IC50, Guinea pig [5]: 0.36 nM
AlphaLISA IC50, - HSA [13]: 0.19 nM
binding ELISA (OD 450 nm) [6]: 1.55 OD 450 nm
koff [7]: 0.0011 s⁻¹
koff [8]: 0.00098 s⁻¹
koff [9]: 0.0011 s⁻¹
koff [10]: 0.00094 s⁻¹
koff [11]: 0.0018 s⁻¹
koff [12]: 0.001 s⁻¹

B5: Nanobody 3B03 (VHH)
VHH: EVQLVESGGDLVQPGGSLRLSCAASGSDVVVNDMGWYRQAPGKQRELVADITTGGRTNYADSVKGRFTISRDNVKNTVYLQMNSLKPEDTAVYYCNAQVGDSDDDVWYAYWGQGTLVTVSS
notes: tagged as tested (anti-Flag detection, IMAC); also called 03B03
FRET assay % inh, periplasmic extract [1]: 93%
FRET assay vi (U/min), periplasmic extract [1]: 2 U/min
Human AlphaLISA % inhibition [2]: 100%
Human AlphaLISA IC50 [2]: 12 nM
binding ELISA (OD 450 nm) [6]: 2.29 OD 450 nm

B6: Nanobody 7B11 (VHH)
VHH: EVQLVESGGGLVQPGGSLRLSCAASGSIFSINVMGWYRQAPGKQRELVAAIISGGRTNYADSVKGRFTISRDNSKNTVYLQMNSLRPEDTAVYYCNAEVDAGIYAYGYWGQGTLVTVSS
notes: tagged as tested (anti-Flag detection, IMAC); also called 07B11
FRET assay % inh, periplasmic extract [1]: 90%
FRET assay vi (U/min), periplasmic extract [1]: 2 U/min
Human AlphaLISA % inhibition [2]: 100%
Human AlphaLISA IC50 [2]: 3.6 nM
binding ELISA (OD 450 nm) [6]: 0.368 OD 450 nm

B7: Nanobody 3B02 (VHH)
VHH: EVQLVESGGGFVQAGGSLRLSCVASRRTISSGTMGWFRQAPGKEREFVAAIRWSSGMPYYLDSVMDRFTISRDNAKNTVSLQMNSLQPEDTAVYYCAADRSAFRDPSFDVNYEYWGRGTLVTVSS
notes: tagged as tested (anti-Flag detection, IMAC); also called 03B02; 3B2
FRET assay % inh, periplasmic extract [1]: 105%
FRET assay vi (U/min), periplasmic extract [1]: -1 U/min
Human AlphaLISA % inhibition [2]: 100%
Human AlphaLISA IC50 [2]: 0.3 nM
AlphaLISA potency IC50, Human [3]: 0.3 nM
AlphaLISA potency IC50, Cyno [4]: 0.19 nM
AlphaLISA potency IC50, Guinea pig [5]: 0.46 nM
AlphaLISA IC50, - HSA [13]: 0.3 nM
binding ELISA (OD 450 nm) [6]: 2.57 OD 450 nm
koff [7]: 0.00073 s⁻¹
koff [8]: 0.00074 s⁻¹
koff [9]: 0.001 s⁻¹
koff [10]: 0.00085 s⁻¹
koff [11]: 0.002 s⁻¹
koff [12]: 0.0012 s⁻¹

B8: Nanobody 9D03 (VHH)
VHH: EVQLVESGGGLVQSGGSLRLSCAASGSAVSVNAMAWYRQAPGKQRDFVAGISRSAGRTYYTDSVKDRFTIARDSAKNTVYLQMNRLKPEDTAVYYCAADLDPNRIFSRDEAAYWGQGTLVTVSS
notes: tagged as tested (anti-Flag detection, IMAC); also called 09D03; 9D3
FRET assay % inh, periplasmic extract [1]: 110%
FRET assay vi (U/min), periplasmic extract [1]: -2 U/min
Human AlphaLISA % inhibition [2]: 100%
Human AlphaLISA IC50 [2]: 0.11 nM
AlphaLISA potency IC50, Human [3]: 0.11 nM
AlphaLISA potency IC50, Cyno [4]: 0.12 nM
AlphaLISA potency IC50, Guinea pig [5]: 0.13 nM
AlphaLISA IC50, - HSA [13]: 0.11 nM
koff [7]: 0.00098 s⁻¹
koff [8]: 0.00092 s⁻¹
koff [9]: 0.001 s⁻¹
koff [10]: 0.0012 s⁻¹
koff [11]: 0.0037 s⁻¹
koff [12]: 0.0014 s⁻¹
